Results: patent US20060019320A1, “Wnt mediated erbb signalling, compositions and uses related thereto” (priority 2002, published 2006)

Experiments:
ERK1/2 = assay: phospho-ERK1/2 immunoblot (MAPK activity) in HC11 cells; type: cell-based, mouse
Source text: The MAPK and PI3K pathways are major signaling cascades downstream of activated ErbB receptors (Olayioye et al., 2000). Antisera specific for the active, phosphorylated forms of ERK1/2 and PKB, the major kinases on the respective pathways, were used to probe for their activity. 50 micrograms of WCL were immunoblotted essentially as described above with the exception that a phospho-ERK1/2 antibody (commercially available, New England Biolabs) or a phosphoPKB antibody was used. Membranes were stripped and reprobed for ERK1/2 (anti-p44/42 ERK, New England Biolabs).
Briefly, conditioned media (CM) from Wnt-HC11 cells prepared as described in Example 1 was tested for its effect on ErbB1 and MAPK activity, essentially as described above. Treatment of C-HC11 cells for 10 min with Wnt1- and Wnt5a-CM stimulated phospho-ERK1/2 levels 5-6-fold, whereas CM from C-HC11 cells had no effect.
To rule out the potential involvement of ErbB1 ligands in mediating the effects of Wnt-containing CM, we used secreted Frizzled-related protein-1 (sFRP-1), which binds Wnt preventing it from binding Fz (Uren et al., 2000). […]
The metalloproteinase inhibitors were next tested in the presence of Wnt-containing CM. […] Phospho-ERK1/2 levels were determined as above. […]

cyclin D1 = assay: Cyclin D1 immunoblot in HC11 cells; type: cell-based, mouse; details: control (C-HC11) cells treated 6 hr
Description: Briefly, WCL was prepared from HC11, Wnt1- and Wnt5a-expressing HC11 cells and 50 μg immunoblotted essentially as described above using commercially available antibodies against cyclin D1 (NovaCastra) or cyclin D2 (SantaCruz). Both Wnt1- and Wnt5a-HC11 cells express higher levels of cyclin D1, in comparison to HC11 cells. In addition, Wnt1-HC11 cells but not C- or Wnt5a-HC11 cells express cyclin D2.
C-HC11 cells were also treated 6 hrs with CM from Wnt-HC11 cells. WCL were prepared and 50 μg was immunoblotted for Cyclin D1 or Cyclin D2. Similar to the results with the Wnt-HC11 cell lines, both Wnts (CM) stimulated Cyclin D1 expression, while only Wnt1 enhanced cyclin D2 levels.
To assess the contribution of Wnt-transactivated ErbB1 on cyclin D1 and D2 expression, C- and Wnt-HC11 cells were treated 6 hr with PKI166 or CGS27023A or EGF. […] In contrast, the ErbB1 inhibitor had no effect on cyclin D2 levels. […] Thus, cyclin D1 and cyclin D2 are differentially controlled. Both Wnt1 and Wnt5a transactivate ErbB1, which results in increased expression of cyclin D1; in contrast cyclinD2 is only elevated in Wnt1 expressing cells and this is independent of ErbB1 activity.

ErbB1 = target: T1, ErbB1 (Mus musculus, UniProt Q01279); assay: ErbB1 immunoprecipitation and phosphotyrosine immunoblot in HC11 cells; type: cell-based; details: HC11 cells, 100 ng/ml EGF for 10 minutes
T1 construct: ErbB1 was immunoprecipitated from 500 micrograms WCL and immunoblotted with a phosphotyrosine specific antibody; endogenous in cells; host or cells: HC11 mammary cells (C-HC11, Wnt1-HC11, Wnt5a-HC11)
Description: ErbB1 is transactivated by many classes of membrane proteins (Carpenter, 1999; Gschwind et al., 2001). However, Wnt/VFz-mediated activation of ErbB1 has not been reported previously. Since ErbB1 tyrosine phosphorylation is an essential step in ErbB1 activation, we examined whether Wnt can activate ErbB1, by immunoprecipitating the receptor form Wnt/HC11 cells and performing a Westem analysis with phosphotyrosine specific antiserum. For these experiments HC11 cells were grown over night in medium without EGF. As a control for ErbB1 activation, C-HC 11 and Wnt-HC11 cells were treated for 10 minutes with 100 ng/ml EGF. An ErbB1 selective kinase inhibitor PKI166 (Traxler et al., 2001) was also used in some experiments. For this, the cells were pretreated 1 hr with 5 microM PKI 166, or left untreated, before preparing WCLs, essentially as described in Example 1.
ErbB1 was immunoprecipitated from 500 micrograms WCL and immunoblotted with a phosphotyrosine specific antibody (anti-phosphotyrosine AG10, Upstate Biotechnology) essentially as described previously (Lane et al., 2000). Membranes were stripped by placing them in 2% SDS, 62.5 mM Tris pH 6.8, 100 mM beta-mercaptoethanol at 60° C. for 30 min. Stripped membranes were reprobed for ErbB1 using a commercially available antibody (antibody 1005,Santa Cruz Biotechnology). […]

Row | ErbB1 phosphorylation (ErbB1) | Molecule | Wnt1 and Wnt5a CM-induced increase of phospho-ERK1/2 levels (ERK1/2; C-HC11, CM from sFRP1-producing 293 cells premixed 1:1 with Wnt-containing CM, 10 min) | ERK1/2 phosphorylation (ERK1/2; C-HC11 cells, EGF 10 minutes in the presence of sFRP1) | cyclin D1 expression (cyclin D1)
1 | – | sFRP1: secreted Frizzled-related protein-1, binds Wnt preventing it from binding Fz; used as CM from sFRP1-producing HEK293 cells (protein, UniProt Q8N474 32-314, looked up) Secreted frizzled-related …: SEYDYVSFQSDIGPYQSGRFYTKPPQCVDIPADLRLCHNVGYKKMVLPNLLEHETMAEVKQQASSWVPLLNKNCHAGTQVFLCSLFAPVCLDRPIYPCRWLCEAVRDSCEPVMQFFGFYWPEMLKCDKFPEGDVCIAMTPPNATEASKPQGTTVCPPCDNELKSEAIIEHLCASEFALRMKIKEVKKENGDKKIVPKKKKPLKLGPIKKKDLKKLVLYLKNGADCPCHQLDNLSHHFLIMGRKVKSQYLLTAIHKWDKKNKEFKNFMKKMKNHECPTFQSVFK | prevented | – | –
2 | strong increase | EGF: an ErbB1 activator, used as control for ErbB1 activation (protein, UniProt P01133 23-1207, looked up, Pro-epidermal growth factor) Pro-epidermal growth factor: PQHWSCPEGTLAGNGNSTCVGPAPFLIFSHGNSIFRIDTEGTNYEQLVVDAGVSVIMDFHYNEKRIYWVDLERQLLQRVFLNGSRQERVCNIEKNVSGMAINWINEEVIWSNQQEGIITVTDMKGNNSHILLSALKYPANVAVDPVERFIFWSSEVAGSLYRADLDGVGVKALLETSEKITAVSLDVLDKRLFWIQYNREGSNSLICSCDYDGGSVHISKHPTQHNLFAMSLFGDRIFYSTWKMKTIWIANKHTGKDMVRINLHSSFVPLGELKVVHPLAQPKAEDDTWEPEQKLCKLRKGNCSSTVCGQDLQSHLCMCAEGYALSRDRKYCEDVNECAFWNHGCTLGCKNTPGSYYCTCPVGFVLLPDGKRCHQLVSCPRNVSECSHDCVLTSEGPLCFCPEGSVLERDGKTCSGCSSPDNGGCSQLCVPLSPVSWECDCFPGYDLQLDEKSCAASGPQPFLLFANSQDIRHMHFDGTDYGTLLSQQMGMVYALDHDPVENKIYFAHTALKWIERANMDGSQRERLIEEGVDVPEGLAVDWIGRRFYWTDRGKSLIGRSDLNGKRSKIITKENISQPRGIAVHPMAKRLFWTDTGINPRIESSSLQGLGRLVIASSDLIWPSGITIDFLTDKLYWCDAKQSVIEMANLDGSKRRRLTQNDVGHPFAVAVFEDYVWFSDWAMPSVMRVNKRTGKDRVRLQGSMLKPSSLVVVHPLAKPGADPCLYQNGGCEHICKKRLGTAWCSCREGFMKASDGKTCLALDGHQLLAGGEVDLKNQVTPLDILSKTRVSEDNITESQHMLVAEIMVSDQDDCAPVGCSMYARCISEGEDATCQCLKGFAGDGKLCSDIDECEMGVPVCPPASSKCINTEGGYVCRCSEGYQGDGIHCLDIDECQLGEHSCGENASCTNTEGGYTCMCAGRLSEPGLICPDSTPPPHLREDDHHYSVRNSDSECPLSHDGYCLHDGVCMYIEALDKYACNCVVGYIGERCQYRDLKWWELRHAGHGQQQKVIVVAVCVVVLVMLLLLSLWGAHYYRTQKLLSKNPKNPYEESSRDVRSRRPADTEDGMSSCPQPWFVVIKEHQDLKNGGQPVAGEDGQAADGSMQPTSWRQEPQLCGMGTEQGCWIPVSSDKGSCPQVMERSFHMPSYGTQTLEGGVEKPHSLLSANPLWQQRALDPPHQMELTQ | – | able to induce | stimulate
